Measurements published in article PMC2646846.

How the values were obtained:
Test in all cases: FRET or BRET
[1] = molecular target: calpain-2 Cys105Ala-eGFP-H6 (rat) with the truncated small subunit (rat) (UniProt Q07009)
[2] = molecular target: calpain-2 Cys105Ala-CCPGCC-H6 (rat) labelled with LumioGreen, with the truncated small subunit (rat) (UniProt Q07009)
[3] = molecular target: labeled calpastatin fragments (competition by non-fluorigenic calpains)

Substance: cL-ABC-D1 Cys241Ser Ser148Cys labelled with AlexaFluor546 (from UniProt P20810 114-270) (domain or fragment)
- increase in EmAcc/EmDon on addition of calcium [1]: 99.9%
- maximal calcium-dependent increase in EmAcc/EmDon (average) [1]: 0.45
- increase in EmAcc/EmDon on addition of calcium [2]: 330%

Substance: cL-AtB-D1-Ser151Cys-Alexafluor546 (from UniProt P20810 114-202) (domain or fragment)
- FRET efficiency [1]: 25.3%
- absolute increase in EmAcc/EmDon on addition of calcium (2.5 mM) [1]: 0.22
- increase in EmAcc/EmDon on addition of calcium [1]: 66.7%
- increase in EmAcc/EmDon on addition of calcium (2.5 mM), single assay [1]: 64.4%
- maximal calcium-dependent increase in EmAcc/EmDon (average) [1]: 0.169

Substance: cL-ABC-D1 Cys241Ser Ser151Cys labelled with TMR (from UniProt P20810 114-270) (domain or fragment)
- increase in EmAcc/EmDon on addition of calcium [2]: 330%

Substance: cL-AtB-D1 Ser142Cys labelled with AlexaFluor546 (from UniProt P20810 114-202) (domain or fragment)
- increase in EmAcc/EmDon on addition of calcium [1]: 66.7%

Substance: calpain-2 Cys105Ala (rat), non-fluorigenic, with the truncated small subunit (from UniProt Q07009 20-700) (complex)
- inhibition of FRET at ~0.35 μM competitor [3]: 50%

Substance: porcine erythrocyte calpain 1 (from UniProt P35750 1-714; P04574 1-266) (complex)
- inhibition of FRET at ~0.35 μM competitor [3]: 50%

Substance: cL-AtB-D1 Ser148Cys labelled with AlexaFluor546 (from UniProt P20810 114-202) (domain or fragment)
- increase in EmAcc/EmDon on addition of calcium [1]: 66.7%
- maximal calcium-dependent increase in EmAcc/EmDon (average) [1]: 0.169

Substance: cL-ABC-D1 Cys241Ser Ser151Cys labelled with AlexaFluor546 (from UniProt P20810 114-270) (domain or fragment)
- FRET efficiency [1]: 32.7%
- increase in EmAcc/EmDon on addition of calcium [1]: 99.9%
- maximal calcium-dependent increase in EmAcc/EmDon (average) [1]: 0.45
- increase in EmAcc/EmDon on addition of calcium [2]: 330%

Substance: cL-ABC-D1 Cys241Ser Ser148Cys labelled with TMR (from UniProt P20810 114-270) (domain or fragment)
- increase in EmAcc/EmDon on addition of calcium [2]: 330%

Substance: cL-ABC-D1 Cys241Ser Ser142Cys labelled with TMR (from UniProt P20810 114-270) (domain or fragment)
- increase in EmAcc/EmDon on addition of calcium [2]: 330%

Substance: cL-ABC-D1-Cys241Ser-Ala246Cys Alexafluor546 (from UniProt P20810 114-270) (domain or fragment)
- FRET efficiency [1]: 33.5%
- absolute increase in EmAcc/EmDon on addition of calcium (2.5 mM) [1]: 0.456
- increase in EmAcc/EmDon on addition of calcium [1]: 99.9%
- increase in EmAcc/EmDon on addition of calcium (2.5 mM), single assay [1]: 70%
- maximal calcium-dependent increase in EmAcc/EmDon (average) [1]: 0.45

Substance: cL-ABC-D1 Cys241Ser Ser142Cys labelled with AlexaFluor546 (from UniProt P20810 114-270) (domain or fragment)
- increase in EmAcc/EmDon on addition of calcium [1]: 99.9%
- increase in EmAcc/EmDon on addition of calcium [2]: 330%

Substance: cL-ABC-D1 Cys241Ser Ser223Cys labelled with AlexaFluor546 (from UniProt P20810 114-270) (domain or fragment)
- FRET efficiency [1]: 13.2%
- increase in EmAcc/EmDon on addition of calcium [1]: 34.1%
